# Substitutions are numbered along the chain they refer to. Numbers in names are those of the source.
# B1: hucMet27Gv1.3 (antibody, human IgG1, kappa)
# light: EIVLTQSPATLSLSPGERATLSCRASESVDSYGNSFIHWYQQKPGQAPRLLIYRASNLESGIPARFSGSGSGTDFTLTISSLEPEDFAVYYCQQSNEEPLTFGQGTKVELKRTVAAPSVFIFPPSDEQLKSGTASVVCLLNNFYPREAKVQWKVDNALQSGNSQESVTEQDSKDSTYSLSSTLTLSKADYEKHKVYACEVTHQGLSSPVTKSFNRGEC
# heavy: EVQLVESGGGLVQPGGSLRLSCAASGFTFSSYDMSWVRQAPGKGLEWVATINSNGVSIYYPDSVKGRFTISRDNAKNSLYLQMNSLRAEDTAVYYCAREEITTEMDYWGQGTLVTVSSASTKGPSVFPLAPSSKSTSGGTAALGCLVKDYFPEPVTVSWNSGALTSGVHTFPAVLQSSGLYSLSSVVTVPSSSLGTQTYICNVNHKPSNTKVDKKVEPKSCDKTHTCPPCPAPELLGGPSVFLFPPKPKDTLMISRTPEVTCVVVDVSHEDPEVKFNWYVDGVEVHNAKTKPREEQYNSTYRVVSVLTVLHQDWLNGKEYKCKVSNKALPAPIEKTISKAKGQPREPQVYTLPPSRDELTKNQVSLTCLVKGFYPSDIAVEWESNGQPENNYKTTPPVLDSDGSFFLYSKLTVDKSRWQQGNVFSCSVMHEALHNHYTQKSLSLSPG
# notes: CDR-grafted cMET-27 with one S49A backmutation in VH; preferred construct
# B2: hucMet27Gv1.3HingeIgG2S127C (antibody)
# light: B1 light
# heavy: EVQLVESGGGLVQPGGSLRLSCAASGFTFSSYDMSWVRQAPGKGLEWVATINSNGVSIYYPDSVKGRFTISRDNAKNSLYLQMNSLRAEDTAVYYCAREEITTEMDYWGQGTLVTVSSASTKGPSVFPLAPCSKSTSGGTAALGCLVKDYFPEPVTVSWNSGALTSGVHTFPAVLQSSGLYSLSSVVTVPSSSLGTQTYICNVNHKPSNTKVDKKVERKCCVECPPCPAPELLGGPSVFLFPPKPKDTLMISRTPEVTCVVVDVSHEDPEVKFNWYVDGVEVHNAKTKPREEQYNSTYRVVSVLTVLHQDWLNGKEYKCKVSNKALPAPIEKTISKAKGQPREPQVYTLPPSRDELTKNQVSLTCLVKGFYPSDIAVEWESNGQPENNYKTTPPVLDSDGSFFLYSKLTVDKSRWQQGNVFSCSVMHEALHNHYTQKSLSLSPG
# B3: hucMet27Gv1.3Hinge26C442 (antibody)
# light: B1 light
# heavy: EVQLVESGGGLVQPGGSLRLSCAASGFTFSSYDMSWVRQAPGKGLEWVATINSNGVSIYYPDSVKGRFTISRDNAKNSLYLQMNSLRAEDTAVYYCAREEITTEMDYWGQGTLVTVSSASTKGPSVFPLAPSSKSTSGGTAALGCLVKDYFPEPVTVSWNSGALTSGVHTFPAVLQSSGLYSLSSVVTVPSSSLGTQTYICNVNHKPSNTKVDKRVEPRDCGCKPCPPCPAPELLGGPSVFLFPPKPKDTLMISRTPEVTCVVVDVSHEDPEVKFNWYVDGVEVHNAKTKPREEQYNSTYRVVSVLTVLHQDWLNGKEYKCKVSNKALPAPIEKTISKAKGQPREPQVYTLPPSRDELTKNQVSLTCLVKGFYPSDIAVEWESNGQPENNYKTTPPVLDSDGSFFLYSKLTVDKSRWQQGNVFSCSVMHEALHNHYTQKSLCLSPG
# notes: Hinge#26 and C442 (Cysmab) variant of hucMet27Gv1.3
# B4: hucMet27Gv1.3Hinge28 (antibody)
# light: B1 light
# heavy: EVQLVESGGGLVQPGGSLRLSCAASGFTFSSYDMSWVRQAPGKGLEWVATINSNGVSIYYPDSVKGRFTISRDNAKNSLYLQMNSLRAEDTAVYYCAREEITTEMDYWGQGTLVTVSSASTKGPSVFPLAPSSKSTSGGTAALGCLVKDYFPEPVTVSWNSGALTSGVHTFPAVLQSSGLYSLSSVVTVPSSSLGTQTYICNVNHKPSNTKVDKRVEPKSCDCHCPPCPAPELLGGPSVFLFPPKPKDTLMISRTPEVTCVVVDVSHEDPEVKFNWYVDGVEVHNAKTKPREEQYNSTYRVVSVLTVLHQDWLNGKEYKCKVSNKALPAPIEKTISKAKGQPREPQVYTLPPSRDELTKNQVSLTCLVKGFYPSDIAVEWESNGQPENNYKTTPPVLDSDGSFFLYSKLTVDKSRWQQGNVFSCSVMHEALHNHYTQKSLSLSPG
# notes: Hinge#28 variant of hucMet27Gv1.3
# B5: hucMet27Gv1.3C442 (antibody)
# light: B1 light
# heavy: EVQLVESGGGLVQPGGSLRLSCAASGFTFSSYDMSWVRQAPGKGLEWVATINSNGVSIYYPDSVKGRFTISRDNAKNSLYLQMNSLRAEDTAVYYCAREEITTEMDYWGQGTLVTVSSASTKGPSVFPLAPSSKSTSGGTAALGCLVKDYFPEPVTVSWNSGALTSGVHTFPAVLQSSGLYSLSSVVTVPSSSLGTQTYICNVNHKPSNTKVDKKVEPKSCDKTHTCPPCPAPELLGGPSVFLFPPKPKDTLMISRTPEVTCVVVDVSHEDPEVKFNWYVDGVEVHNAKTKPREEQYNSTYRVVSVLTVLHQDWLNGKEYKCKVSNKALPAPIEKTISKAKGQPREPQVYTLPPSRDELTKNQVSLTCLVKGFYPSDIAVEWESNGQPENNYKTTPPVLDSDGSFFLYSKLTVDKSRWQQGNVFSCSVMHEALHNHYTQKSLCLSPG
# notes: Cysteine-engineered (C442, Cysmab) form of hucMet27Gv1.3, tested unconjugated
# B6: hucMet27Gv1.2 (antibody, human IgG1, kappa, V domains shown)
# VH: EVQLVESGGGLVQPGGSLRLSCAASGFTFSSYDMSWVRQAPGKGLELVATINSNGVSIYYPDSVKGRFTISRDIAKNSLYLQMNSLRAEDTAVYYCAREEITTEMDYWGQGTLVTVSS
# VL: EIVLTQSPATLSLSPGERATLSCRASESVDSYGNSFIHWYQQKPGQAPRLLIYRASNLESGIPARFSGSGSGTDFTLTISSLEPEDFAVYYCQQSNEEPLTFGQGTKVELKR
# notes: CDR-grafted cMET-27 with backmutations only in the VH domain (W47L, S49A, N73I); also called v1.2 (CDR-grafted)
# B7: hucMet27v1.2 (antibody, human IgG1, kappa, V domains shown)
# VH: B6 VH with A40T, S78T, N84S, V93M, L113S
# VL: DIVLTQSPASLAVSPGQRATISCRASESVDSYGNSFIHWYQQKPGQPPKLLIYRASNLESGIPARFSGSGSRTDFTLTINPVEANDVATYYCQQSNEEPLTFGGGTKLELKR
# notes: also called hu247.27.16 v1.2 (resurfaced); hu247.27.16 LC1.2 / HC1.0
# B8: hucMet22Gv2.2 (antibody, V domains shown)
# VH: QVQLVQSGAEVKKPGASVKVSCKASGYTFTDYNMDWVRQAPGQRLEWIGDLNPNNGATIYNQKFKGRATLTVDMSASTAYMELSSLRSEDTAVYYCARGNYYGNYYYLMDYWGQGTSVTVSS
# VL: DIQMTQSPSSLSASVGDRVTITCRASENIYSTLAWYQQKPGKAPKLLVYAATNLADGVPSRFSGSGSGTDYTLTISSLQPEDFATYYCQHFWGTPYTFGQGTKVEIKR
# notes: also called humanized (CDR-grafted) cMET-22
# Biological target: T1, Human cMet-ECD-his (human, UniProt P08581 25-932)
# T1 construct: extracellular domain; Soluble analyte in the ForteBio assay; also called hu cMet; soluble recombinant hu cMet protein; not shown: histidine-containing peptide (His tag)
# Assay: BLI (ForteBio), antibody on anti-hIgG Fc capture biosensor, soluble cMet-ECD-his 2.6-30 nM, 1:1 fit
# Procedure: (§1) Briefly, each antibody was bound and immobilized onto an anti-hIgG Fc Capture biosensor and then incubated in the presence of different concentrations (2.6-30 nM) of His-tagged soluble cMet. The kinetics of binding were determined via ForteBio analysis binding using a 1:1 binding fit model.
# T1 sequence (P08581 25-932): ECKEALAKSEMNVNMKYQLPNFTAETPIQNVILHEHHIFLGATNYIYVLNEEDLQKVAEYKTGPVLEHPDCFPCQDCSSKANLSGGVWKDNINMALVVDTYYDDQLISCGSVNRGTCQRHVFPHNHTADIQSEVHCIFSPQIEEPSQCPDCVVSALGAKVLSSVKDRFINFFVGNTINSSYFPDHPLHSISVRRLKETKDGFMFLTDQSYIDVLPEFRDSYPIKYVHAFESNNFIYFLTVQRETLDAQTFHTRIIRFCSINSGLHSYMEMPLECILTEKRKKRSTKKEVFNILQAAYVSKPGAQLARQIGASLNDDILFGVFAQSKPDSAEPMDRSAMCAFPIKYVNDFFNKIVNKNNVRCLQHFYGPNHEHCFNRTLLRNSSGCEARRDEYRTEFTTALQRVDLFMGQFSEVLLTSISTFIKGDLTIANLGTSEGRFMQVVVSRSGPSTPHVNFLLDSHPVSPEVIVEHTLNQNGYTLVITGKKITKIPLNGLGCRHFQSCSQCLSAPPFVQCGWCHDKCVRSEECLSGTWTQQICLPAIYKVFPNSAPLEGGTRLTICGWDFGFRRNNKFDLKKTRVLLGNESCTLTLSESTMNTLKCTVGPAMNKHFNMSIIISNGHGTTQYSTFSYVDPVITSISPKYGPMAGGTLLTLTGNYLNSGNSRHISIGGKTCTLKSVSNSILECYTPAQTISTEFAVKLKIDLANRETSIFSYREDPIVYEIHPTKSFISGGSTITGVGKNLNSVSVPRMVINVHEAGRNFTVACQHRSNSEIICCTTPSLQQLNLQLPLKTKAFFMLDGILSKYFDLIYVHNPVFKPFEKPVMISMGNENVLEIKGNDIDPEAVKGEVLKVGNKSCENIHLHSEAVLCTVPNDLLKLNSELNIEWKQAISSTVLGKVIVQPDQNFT
Binder,Kd [nM],koff [s⁻¹],kon [M⁻¹ s⁻¹]
B1,1.81,0.000478,264000
B2,1.67,0.000436,235000
B3,1.9,0.000497,262000
B4,1.96,0.000451,230000
B5,1.64,0.000447,272000
B6,0.941,0.000154,266000
B7,0.989,0.000233,236000
B8,4.77,0.00213,445000

# Biological target: T2, Cyno cMet-ECD-his (cynomolgus monkey)
# T2 construct: extracellular domain; Soluble analyte in the ForteBio assay; also called cynomolgus monkey cMet
# Assay: as above
# Procedure: as §1
Binder,Kd [nM],koff [s⁻¹],kon [M⁻¹ s⁻¹]
B1,1.94,0.000415,214000
B2,1.47,0.00045,307000
B3,1.57,0.000496,317000
B4,1.68,0.000564,336000
B5,1.6,0.000439,273000
B6,0.614,0.000148,241000
B7,0.928,0.000196,212000
B8,3.62,0.00128,353000

# Reference: US20180230218A1 (IMMUNOGEN, published 2018)
